Key:
[1] = target: T1, human Fc-fusion protein containing the FMC63-derived scFv portion of the CAR (biotinylated ECD fusion protein … (biotinylated (capture form))); sulfo-tagged (detection form)); test: bridge assay, biotinylated scFv-Fc on streptavidin plate, sulfo-tagged scFv-Fc detection, ECL (MSD)
T1 construct: also called FMC63-derived Fc-scFv fusion; not shown: human Fc
Text: A bridge anti-therapeutic antibody (ATA) assay was developed to detect the presence or absence of antibodies, in serum of treated subjects, recognizing administered anti-CD19 CARs. Certain anti-ID antibodies described in Examples 1-3 were used as positive controls and to validate the ability of the assay to detect the presence of such antibodies.
A biotinylated human Fc-fusion protein (biotinylated ECD fusion protein) was used, containing an scFv portion of the CAR with variable regions derived from FMC63 (set forth in SEQ ID NO:34). The biotinylated ECD fusion protein was added to streptavidin-coated wells; the plates were incubated under conditions to allow binding of the fusion protein, and washed. To the biotinylated fusion protein-coated wells, various concentrations of anti-ID B-1 or anti-ID B-2 were added to the wells, and allowed to incubate under conditions to allow specific binding of the antibody. After washing, a sulfo-tagged version of the ECD fusion protein (sulfo-ECD fusion protein) containing the FMC63-derived Fc-scFv fusion. The wells were washed and an electrochemiluminescence (ECL) signal was read on a Meso Scale Discovery (MSD) Sector Imager.

[2] = target: T2, anti-CD19 (SJ25C1-derived) chimeric antigen receptor (CAR), expressed on T cells or Jurkat cells (human, UniProt P10747 153-179; P10747 180-220; P20963 52-163, limits assumed); test: flow cytometry, biotin-conjugated antibody and PE-streptavidin on CAR-transduced cells
T2 construct: domain: transmembrane domain;domain: intracellular signaling domain;domain: signaling domain; Whole CAR on the surface of transduced human T cells, PBMCs or Jurkat cells; also called anti-CD19 (SJ25C1) CAR; SJ25C1-derived CAR
Procedure: Hybridoma fusion clones were generated and 12 candidate clones were further characterized by flow cytometry. Peripheral blood mononuclear cells were isolated from human subjects and cells were activated and transduced with a viral vector encoding the anti-CD19 CAR. For flow cytometry, about 1×10⁶ cells per 100 μL were incubated with 10 μL of biotin-conjugated anti-idiotype antibody followed by staining with a PE-conjugated streptavidin. As a positive control for surface expression of the CAR, cells were stained with an anti-EGFR antibody to verify expression of the EGFRt transduction marker, which was a surrogate of CAR expression. […] Cells were gated on CD3⁺ CD4⁺/CD8⁺ PBMCs and fluorescence signal was determined. […] To confirm the antibodies were specific for the scFv derived from the anti-CD19 antibody derived from FMC63, similar experiments were performed on cells transduced with an anti-CD19 CAR derived from SJ25C1 as described in Example 1. […] Anti-idiotype antibody clones B-1 (anti-ID B-1) and B-2 (anti-ID B-2) were selected for further characterization.

[3] = target: T3, anti-CD19 (FMC63-derived) chimeric antigen receptor (CAR), expressed on T cells; test: inferred from a T cell proliferation assay with plate-bound antibody
T3 construct: Whole CAR on the surface of transduced human T cells/PBMCs, co-expressed with EGFRt from the same construct (T2A); treated here as one molecule; also called anti-CD19 (FMC63) CAR; FMC63-derived CAR
Procedure: For proliferation studies, engineered T cells were labeled with 50 nM carboxyfluorescein succinimidyl ester (CFSE) or CELL TRACE VIOLET (CTV) dye. Where relevant, expression of the surrogate EGFRt marker was detected by staining with an anti-EGFR antibody. Cells were seeded at a fixed number of cells per well in wells previously coated with 10, 5, 2.5, or 1.25 μg/ml of OKT3 (anti-CD3 antibody), or of anti-idiotype antibodies recognizing SJ25C1 and FMC63 (anti-ID A-land anti-ID B-1, respectively) in sodium carbonate/bicarbonate buffer (pH 9.0) overnight. Cells seeded in wells with no antibody coating were included as negative controls. The cells were cultured for 4 days and assessed for viability, proliferation, and expression of CD69 and CD25.
Proliferation of anti-CD19 (SJ25C1 or FMC63) CAR− expressing T cells was assessed by dye dilution using flow cytometry. The percent of CD3⁺/CFSE® w cells observed following stimulation of anti-CD19 (SJ25C1) CAR− expressing T cells with anti-ID A-1 is shown in FIG. 2A. The percent of CD3⁺/EGFR+/CFSE® W cells observed following stimulation of anti-CD19 (FMC63) CAR− expressing T cells with anti-ID B-1 is shown in FIG. 2B. […]

[4] = target: T3, anti-CD19 (FMC63-derived) chimeric …; test: flow cytometry, CAR T cells spiked into human PBMCs
Procedure: The anti-CD19 CAR expressing cells were spiked in to a sample of cells containing healthy human peripheral blood mononuclear cells (PBMCs). The resulting cell compositions were incubated with different concentrations of the anti-CD19 FMC63 scFv-specific anti-ID B1 or anti-ID B2 antibodies. As a control, samples of each condition were also incubated with a concentration of anti-EGFR antibody, capable of detecting the EGFRt surrogate marker on the transduced cells. Control samples included those only containing the PBMCs without the addition of added CAR− expressing T cells. Geometric mean fluorescence intensity (MFI) was quantified in positively labeled cells to assess antibody staining.

[5] = target: recombinant soluble extracellular domain (ECD) portion of the anti-CD19 (SJ25C1-derived) CAR (human); test: ELISA on the recombinant soluble ECD portion; A-1 is the one named clone of the five
recombinant soluble extracellular domain (ECD) portion of the anti-CD19 (SJ25C1-derived) CAR (human), sequence (chain, as listed by the source): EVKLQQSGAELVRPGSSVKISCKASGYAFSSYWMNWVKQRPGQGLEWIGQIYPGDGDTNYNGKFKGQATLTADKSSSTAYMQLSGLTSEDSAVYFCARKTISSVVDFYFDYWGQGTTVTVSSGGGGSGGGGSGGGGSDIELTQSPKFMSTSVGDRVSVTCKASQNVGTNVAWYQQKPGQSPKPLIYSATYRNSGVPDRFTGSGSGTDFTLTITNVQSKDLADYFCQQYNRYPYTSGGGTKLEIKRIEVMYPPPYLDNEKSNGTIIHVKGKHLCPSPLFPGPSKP

T2 sequence (P10747 other isoform, or with tags, fused parts or gaps mutant limits assumed): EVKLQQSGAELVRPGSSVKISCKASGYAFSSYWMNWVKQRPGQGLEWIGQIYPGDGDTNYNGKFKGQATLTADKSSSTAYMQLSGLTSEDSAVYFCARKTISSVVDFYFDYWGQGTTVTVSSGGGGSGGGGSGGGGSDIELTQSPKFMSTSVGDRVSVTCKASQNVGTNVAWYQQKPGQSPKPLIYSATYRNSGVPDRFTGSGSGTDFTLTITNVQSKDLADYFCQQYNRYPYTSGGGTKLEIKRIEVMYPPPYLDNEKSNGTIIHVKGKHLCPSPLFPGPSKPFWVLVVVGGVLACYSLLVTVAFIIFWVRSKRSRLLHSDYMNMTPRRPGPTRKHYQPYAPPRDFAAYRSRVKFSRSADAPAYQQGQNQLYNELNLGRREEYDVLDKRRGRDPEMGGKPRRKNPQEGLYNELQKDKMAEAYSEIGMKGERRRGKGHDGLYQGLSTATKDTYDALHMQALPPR

B1: anti-idiotype antibody clone B-1 (anti-ID B-1) (antibody, mouse IgG2a, kappa, V domains shown)
VH: EVQLQQSGPELVKPGASVKMSCKASGYTFTDYYMKWVKQCHGKSLEWIGDINPNNGGTDYNQNFKGKATLTVDKSSSTAYMQLNSLTSEDSAVYYCAREGNNYGSRDAMDYWGQGTSVTVSS
VL: QIVLTQSPALMSASPGEKVTMTCSASSGVIYMYWYQQKPRSSPKPWIYLTSNLASGVPARFSGSGSGTSYSLTISSMEAEDAATYYCQQWSSNPLTFGAGTKLELKR
notes: Mouse hybridoma antibody; also called FMC63-derived scFv-specific anti-idiotype antibody
binding result [1]: binds
binding result [2]: no binding
binding result [3]: binds

B2: anti-idiotype antibody clone B-2 (anti-ID B-2) (antibody, mouse IgG1, kappa, V domains shown)
VH: QVQLQQPGAELVRPGASVKLSCKTSGYSFTRYWMNWVKQRPGQGLEWIGMIHPSDSETRLNQKFKDKATLTVDNSSSTAYMQLSSPTSEDSAVYYCASIYYEEAWGQGTLVTVSA
VL: DIQMTQSPASLSASVGETVTITCRASGNIHNYLAWYQQKQGKSPQLLVYNAKTLADSVPSRFSGSGSGTQYSLKINSLQPEDFGSYYCQHFWSTPYTFGGGTKLEIKR
notes: Mouse hybridoma antibody
binding result [4]: binds
binding result [1]: binds
binding result [2]: no binding

B3: anti-idiotype antibody clone A-1 (anti-ID A-1) (antibody, mouse IgG1, kappa, V domains shown)
VH: QVQLQQPGSELVRPGGSVKLSCKASDYTFTSYWMHWVRQRPGQGLEWIGNIYPGSGGTNYDEKFKRKATLTVDTSSSTAYMQLRSLTSEDSAVYYCTREVTTVAYYYSMDYWGQGTSVTVSS
VL: DIQMTQTTSSLSASLGDRVTISCRASQDISNYLNWYQQKPDGTVKLLIYYTSRLHSGVPSRFSGSGSGTDYSLTISNLEQEDIATYFCQQGKTVPFTFGSGTKLEIKR
notes: Mouse hybridoma antibody; also called SJ25C1-derived scFv-specific anti-idiotype antibody; SJ25C1-specific anti-idiotype antibody
binding result [5]: binds

Reference: US20240018268A1 (JUNO THERAPEUTICS, published 2024)
